Laboratory results from article doi:10.1101/2022.03.01.482405.

Tests used:
[1] = target: Photosystem I protomer from Thermosynechococcus elongatus BP-1 (His10-tag on PsaF) (Thermosynechococcus elongatus BP-1) (UniProt P0A405); assay: cryo-EM structure
[2] = target: Photosystem I trimer from Thermosynechococcus elongatus BP-1 (His10-tag on PsaF) (Thermosynechococcus elongatus BP-1) (UniProt P0A405); assay: ITC

Row | stoichiometry N [1] | Kd [2] | Substance
1 | 3 | – | Photosystem I protomer from Thermosynechococcus elongatus BP-1 (His10-tag on PsaF) (from UniProt P0A405;P0A407;P0A415;P0A420;P0A423;P0A401;P0A427;P0A429;P0A425;Q8DGB4;P0A403) (complex)
2 | – | 800 µM | gallium-substituted ferredoxin from Thermosynechococcus elongatus BP-1 (from UniProt P0A3C9) (natural protein)
